# According to patent US20160355553A1 (Janssen / Centocor, published 2016):
# B1: CR9114 (antibody, V domains shown)
# VH: QVQLVQSGAEVKKPGSSVKVSCKSSGGTSNNYAISWVRQAPGQGLDWMGGISPIFGSTAYAQKFQGRVTISADIFSNTAYMELNSLTSEDTAVYFCARHGNYYYYSGMDVWGQGTTVTVSS
# VL: SYVLTQPPAVSGTPGQRVTISCSGSDSNIGRRSVNWYQQFPGTAPKLLIYSNDQRPSVVPDRFSGSKSGTSASLAISGLQSEDEAEYYCAAWDDSLKGAVFGGGTQLTVL
# B2: CR6261 (antibody, V domains shown)
# VH: EVQLVESGAEVKKPGSSVKVSCKASGGPFRSYAISWVRQAPGQGPEWMGGIIPIFGTTKYAPKFQGRVTITADDFAGTVYMELSSLRSEDTAMYYCAKHMGYQVRETMDVWGKGTTVTVSS
# VL: QSVLTQPPSVSAAPGQKVTISCSGSSSNIGNDYVSWYQQLPGTAPKLLIYDNNKRPSGIPDRFSGSKSGTSATLGITGLQTGDEANYYCATWDRRPTAYVVFGGGTKLTVLG
# B3: CR8057 (antibody, V domains shown)
# VH: EVQLVESGGGLVQPGGSLRLSCAASGFTDSVIFMSWVRQAPGKGLECVSIIYIDDSTYYADSVKGRFTISRHNSMGTVFLEMNSLRPDDTAVYYCATESGDFGDQTGPYHYYAMDV
# VL: QSALTQPASVSGSPGQSITISCTGSSGDIGGYNAVSWYQHHPGKAPKLMIYEVTSRPSGVSDRFSASRSGDTASLTVSGLQAEDEAHYYCCSFADSNILI
# Columns and labels:
# [1] = target: H3 Mini-HA cluster 1+2+3+4+5+6+7-N405D (influenza A virus H3N2, UniProt O11283 17-566); assay: FACS, HEK293F cells
# [2] = target: H3 Mini-HA cluster 1+2+3+4+5+6+7-N405E (influenza A virus H3N2, UniProt O11283 17-566); assay: FACS, HEK293F cells
# [3] = target: H3 Mini-HA cluster 1+2+3+4+5+6+7-N405A (influenza A virus H3N2, UniProt O11283 17-566); assay: FACS, HEK293F cells
# [4] = target: H3 Mini-HA cluster 1+5 N405E (influenza A virus H3N2, UniProt O11283 17-566); assay: FACS on HEK293F [D00010 FIG. 8B]
# [5] = target: H3 Mini-HA cluster 1+5 N405A (influenza A virus H3N2, UniProt O11283 17-566); assay: FACS on HEK293F [D00010 FIG. 8B]
# [6] = target: H3 Mini-HA cluster 1+5 N405D (influenza A virus H3N2, UniProt O11283 17-566); assay: FACS on HEK293F [D00010 FIG. 8B]
# [7] = target: full-length HA of H1 A/Brisbane/59/2007 with cleavage site mutation R343Q (influenza A virus H1N1, UniProt B4URD6 18-565); assay: FACS, HEK293F cells
# [8] = target: miniHA cluster1+4 (A/Brisbane/59/2007) (influenza A virus H1N1, UniProt A8C8J4 18-565); assay: FACS on HEK293F
Binder,binding result [1],binding result [2],binding result [3],binding result [4],binding result [5],binding result [6],binding result [7],binding result [8]
B1,no binding (tested: 5 microgram/ml),no binding (tested: 5 microgram/ml),no binding (tested: 5 microgram/ml),no binding (tested: 5 ug/ml),no binding (tested: 5 ug/ml),no binding (tested: 5 ug/ml),–,–
B2,–,–,–,no binding (tested: 5 ug/ml),no binding (tested: 5 ug/ml),no binding (tested: 5 ug/ml),–,–
B3,–,–,–,no binding (tested: 5 ug/ml),no binding (tested: 5 ug/ml),no binding (tested: 5 ug/ml),no binding (tested: 5 microgram/ml),no binding (tested: 5 ug/ml)
